We go through 84 variants from the RNAGym collection of RNA variant scans (doi:10.1021/acssynbio.7b00057).

Sequences and labels used below:
B1: Pistol ribozyme (parent)
chain: GGGUCGUUGUUCCAUAAUCGCGUGGAUAUGGCACGCAAGUUUCUACCGGGCACCGUAAAUGUCCGACUGGAGCCGUUCGGGCGGCUAUAAACAGACCUCAGGCCCGAAGCGUGGCGGCACCUGCCGCCGGUGGUAAAAAAGAUCGGAAGAGCACACGUCU

Variants of B1 are the subject of this data set. Nature of the data set: aptazyme ON/OFF ratio, guanine; higher = stronger switching; co-transcriptional cleavage with and without guanine.
In the case of U8A G9A U11G C12G, the “aptazyme ON/OFF ratio” value worked out at 1.08.

Regarding U8A G9A U11G C12U, the “aptazyme ON/OFF ratio” value amounted to 1.35.

Take U8A G9A U11G C12A: the “aptazyme ON/OFF ratio” value was 1.08.

Take U8A G9C U10C: the “aptazyme ON/OFF ratio” value amounted to 1.35.

Consider U8A G9C U10A, for which the “aptazyme ON/OFF ratio” value was 1.38.

Turning to U8A G9A U11C C12A C13G, the “aptazyme ON/OFF ratio” value came to 1.23.

For U8A G9A U11C C12A C13A, the “aptazyme ON/OFF ratio” value turned out to be 1.07.

On to U8A G9A U11C C12A C13U, for which the “aptazyme ON/OFF ratio” value turned out to be 1.2.

As to U8A G9C, the “aptazyme ON/OFF ratio” value amounted to 1.2.

Turning to U8A G9C U10A C12U C13G, the “aptazyme ON/OFF ratio” value is 1.04.

U8A G9C U10A C12U C13A: the “aptazyme ON/OFF ratio” value was 1.09.

On to U8A G9C U10A C12U C13U, for which the “aptazyme ON/OFF ratio” value was 0.997.

On to U8A G9A U11C C12U, for which the “aptazyme ON/OFF ratio” value was determined as 1.09.

Regarding U8A G9A U11C C12A, the “aptazyme ON/OFF ratio” value turned out to be 1.16.

In the case of U8A G9A U11C C12G, the “aptazyme ON/OFF ratio” value was 1.17.

As to U8A G9A U10G U11G C13A, the “aptazyme ON/OFF ratio” value was found to be 1.17.

Regarding U8A G9A U10G U11G C13G, the “aptazyme ON/OFF ratio” value was determined as 1.12.

Turning to U8A G9A U10G U11G C13U, the “aptazyme ON/OFF ratio” value was 1.05.

On to U8A G9A U11A C12G, for which the “aptazyme ON/OFF ratio” value was determined as 1.31.

As to U8A G9A U11A C12U, the “aptazyme ON/OFF ratio” value came to 1.05.

U8A G9A U11A C12A: the “aptazyme ON/OFF ratio” value was found to be 1.08.

With U8A G9C U10A U11G C13U, the “aptazyme ON/OFF ratio” value was 1.18.

For the variant U8A G9C U10A U11G C13G, the “aptazyme ON/OFF ratio” value was determined as 1.04.

For the variant U8A G9C U10A U11G C13A, the “aptazyme ON/OFF ratio” value was 1.11.

As to U8A G9C U10A U11C C13G, the “aptazyme ON/OFF ratio” value is 1.03.

On to U8A G9C U10A U11C C13U, for which the “aptazyme ON/OFF ratio” value came to 1.

As for U8A G9C U10A U11C C13A, the “aptazyme ON/OFF ratio” value came to 1.1.

As to U8A G9C U10A U11A C12U, the “aptazyme ON/OFF ratio” value was 1.24.

For the variant U8A G9C U10A U11A C12A, the “aptazyme ON/OFF ratio” value was found to be 1.25.

Take U8A G9C U10A U11A C12G: the “aptazyme ON/OFF ratio” value was 1.37.

With U8A G9C U10A U11G C12A C13A, the “aptazyme ON/OFF ratio” value was determined as 1.14.

With U8A G9C U10A U11G C12A C13G, the “aptazyme ON/OFF ratio” value came to 1.26.

Consider U8A G9C U10A U11G C12A C13U, for which the “aptazyme ON/OFF ratio” value came to 1.14.

As to U8A G9C U10A U11A C13U, the “aptazyme ON/OFF ratio” value worked out at 1.22.

As to U8A G9C U10A U11A C13A, the “aptazyme ON/OFF ratio” value came to 1.16.

With U8A G9C U10A U11A C13G, the “aptazyme ON/OFF ratio” value came to 1.08.

For the variant U8A G9A U10G U11G C12G, the “aptazyme ON/OFF ratio” value was 1.26.

As to U8A G9A U10G U11G C12U, the “aptazyme ON/OFF ratio” value was found to be 1.2.

Regarding U8A G9A U10G U11G C12A, the “aptazyme ON/OFF ratio” value worked out at 1.09.

As to U8A G9A U11G C12A C13A, the “aptazyme ON/OFF ratio” value was determined as 1.14.

Consider U8A G9A U11G C12A C13G, for which the “aptazyme ON/OFF ratio” value came out at 1.21.

On to U8A G9A U11G C12A C13U, for which the “aptazyme ON/OFF ratio” value was 1.09.

As for U8A G9C U10C C13A, the “aptazyme ON/OFF ratio” value worked out at 1.01.

With U8A G9C U10C C13G, the “aptazyme ON/OFF ratio” value was found to be 1.01.

For the variant U8A G9C U10C C13U, the “aptazyme ON/OFF ratio” value was 1.06.

As to U8A G9C U10A U11C C12G C13A, the “aptazyme ON/OFF ratio” value is 1.13.

In the case of U8A G9C U10A U11C C12G C13G, the “aptazyme ON/OFF ratio” value was determined as 1.09.

As for U8A G9C U10A U11C C12G C13U, the “aptazyme ON/OFF ratio” value was 1.07.

Consider U8A G9C C13A, for which the “aptazyme ON/OFF ratio” value amounted to 1.11.

Consider U8A G9C C13G, for which the “aptazyme ON/OFF ratio” value was determined as 1.04.

For the variant U8A G9C C13U, the “aptazyme ON/OFF ratio” value stood at 1.17.

For U8A G9A U11G C12G C13U, the “aptazyme ON/OFF ratio” value was found to be 1.27.

U8A G9A U11G C12G C13A: the “aptazyme ON/OFF ratio” value was found to be 1.23.

Regarding U8A G9A U11G C12G C13G, the “aptazyme ON/OFF ratio” value stood at 1.26.

In the case of U8A G9A U11A C12U C13U, the “aptazyme ON/OFF ratio” value was found to be 1.29.

On to U8A G9A U11A C12U C13A, for which the “aptazyme ON/OFF ratio” value was determined as 1.39.

On to U8A G9A U11A C12U C13G, for which the “aptazyme ON/OFF ratio” value came to 1.18.

For U8A G9A U10G U11G C12G C13G, the “aptazyme ON/OFF ratio” value amounted to 1.07.

Consider U8A G9A U10G U11G C12G C13A, for which the “aptazyme ON/OFF ratio” value is 1.01.

On to U8A G9A U10G U11G C12G C13U, for which the “aptazyme ON/OFF ratio” value worked out at 1.05.

For U8A G9A U10G U11G C12U C13A, the “aptazyme ON/OFF ratio” value was 1.36.

For the variant U8A G9A U10G U11G C12U C13U, the “aptazyme ON/OFF ratio” value was found to be 1.2.

For U8A G9A U10G U11G C12U C13G, the “aptazyme ON/OFF ratio” value is 1.26.

For the variant U8A G9C U10A C12A C13G, the “aptazyme ON/OFF ratio” value turned out to be 1.14.

For the variant U8A G9C U10A C12A C13A, the “aptazyme ON/OFF ratio” value was found to be 1.22.

U8A G9C U10A C12A C13U: the “aptazyme ON/OFF ratio” value was 1.19.

With U8A G9C U10C C12U C13G, the “aptazyme ON/OFF ratio” value stood at 1.03.

As to U8A G9C U10C C12U C13A, the “aptazyme ON/OFF ratio” value is 1.04.

As for U8A G9C U10C C12U C13U, the “aptazyme ON/OFF ratio” value amounted to 1.03.

For the variant U8A G9C U10A U11G C12A, the “aptazyme ON/OFF ratio” value is 1.06.

As for U8A G9C U10A U11G C12G, the “aptazyme ON/OFF ratio” value was found to be 1.18.

In the case of U8A G9C U10A U11G C12U, the “aptazyme ON/OFF ratio” value is 1.25.

Turning to U8A G9A U11C C13U, the “aptazyme ON/OFF ratio” value stood at 1.04.

Take U8A G9A U11C C13A: the “aptazyme ON/OFF ratio” value was determined as 1.04.

Consider U8A G9A U11C C13G, for which the “aptazyme ON/OFF ratio” value turned out to be 1.08.

Regarding U8A G9A U11G C13A, the “aptazyme ON/OFF ratio” value worked out at 1.13.

As to U8A G9A U11G C13U, the “aptazyme ON/OFF ratio” value was found to be 1.17.

U8A G9A U11G C13G: the “aptazyme ON/OFF ratio” value was determined as 1.09.

As for U8A G9A U10G U11C C13G, the “aptazyme ON/OFF ratio” value was 1.05.

In the case of U8A G9A U10G U11C C13A, the “aptazyme ON/OFF ratio” value is 1.07.

As to U8A G9A U10G U11C C13U, the “aptazyme ON/OFF ratio” value came out at 1.04.

For the variant U8A G9C U10A U11A C12A C13G, the “aptazyme ON/OFF ratio” value was 1.19.

Take U8A G9C U10A U11A C12A C13U: the “aptazyme ON/OFF ratio” value is 1.37.

Regarding U8A G9C U10A U11A C12A C13A, the “aptazyme ON/OFF ratio” value came to 1.21.
